Source: publication PMC6832557, “An Enzyme- and Label-Free Fluorescence Aptasensor for Detection of Thrombin Based on Graphene Oxide and G-Quadruplex”

Target: thrombin (bovine (plasma), UniProt P00735;P00735 318-366;367-625)
Assay: graphene oxide displacement fluorescence assay (NMM/G-quadruplex readout); graphene oxide, NMM; not given in the material (S incubated with GO for 30 min; NMM ex/em 399/610 nm)
Conditions: protein: commercial; copies: 1;1; label: none (label-free; NMM as G4 reporter); G-quadruplex (Se part)

AGTCCGTGGTAGGGCAGGTTGGGGTGACTGGGTAGGGCGGGTTGGG (structured_DNA) [S (thrombin aptamer Sa + G-quadruplex part Se)]: binds.
